These results are taken from patent US20110020801A1, “Carboxylesterase-1 Polymorphisms and Methods of Use Therefor” (priority 2007, published 2011).

A short description of series [1]: Pharmacokinetic study of orally administered racemic MPH in normal volunteers. In kind it is in vivo, human. The protocol: Analysis of Pharmacokinetic, Hemodynamic, and Statistical Data. Standard pharmacokinetic analyses were applied to the MPH data using WinNonLin software (Pharsight, Mountainview, Calif.) and are described in a previous publication.^10 The AUC, Cmax, and t1/2 were analyzed using the Extreme Studentized Deviate (ESD) single-outlier procedure^12 to determine whether the parameter measurements for the slow metabolizer constituted true statistical outliers. For each parameter, the ESD procedure confirmed the measurement as an outlier at the p<0.01 level. Because this procedure is known to be conservative, the data from the aberrant metabolizer were reassessed using a similar procedure with respect to the normal participants only.

Substrate in series [2]: CCOC(=O)C1=C[C@@H](OC(CC)CC)[C@H](NC(C)=O)[C@@H](N)C1
Put plainly: Oseltamivir phosphate hydrolysis to oseltamivir carboxylate by WT hCES1 S9 (HPLC). It is filed as biochemical, human. As to conditions: other: OP conversion to OC, 37° C., 10 min.

Substrate in series [3]: COC(=O)[C@H](c1ccccc1)[C@H]1CCCCN1
Put plainly: purified protein, by the assay type. As to conditions: other: MPH hydrolysis, S9 0.5 mg/mL, 37° C., 2 hours, mean ± S.D. (n = 3).

In the case of `CCOC(=O)C(c1ccccc1)C1CCCCN1` (stereo not shown) [ethylphenidate], in series [1] (every subject except the slow metabolizer), the “ethylphenidate concentrations after co-administration of methylphenidate with ethanol” value is “Detectable concentrations”. For the same molecule, the “ethylphenidate formation after methylphenidate and ethanol administered together” value in series [1] (slow metabolizer) is on record as “unable to form ethylphenidate”.

B1: WT hCES1 (Homo sapiens) (protein)
chain: GHPSSPPVVDTVHGKVLGKFVSLEGFAQPVAIFLGIPFAKPPLGPLRFTPPQPAEPWSFVKNATSYPPMCTQDPKAGQLLSELFTNRKENIPLKLSEDCLYLNIYTPADLTKKNRLPVMVWIHGGGLMVGAASTYDGLALAAHENVVVVTIQYRLGIWGFFSTGDEHSRGNWGHLDQVAALRWVQDNIASFGGNPGSVTIFGESAGGESVSVLVLSPLAKNLFHRAISESGVALTSVLVKKGDVKPLAEQIAITAGCKTTTSAVMVHCLRQKTEEELLETTLKMKFLSLDLQGDPRESQPLLGTVIDGMLLLKTPEELQAERNFHTVPYMVGINKQEFGWLIPMQLMSYPLSEGQLDQKTAMSLLWKSYPLVCIAKELIPEATEKYLGGTDDTVKKKDLFLDLIADVMFGVPSVIVARNHRDAGAPTYMYEFQYRPSFSSDMKPKTVIGDHGDELFSVFGAPFLKEGASEEEIRLSKMVMKFWANFARNGNPNGEGLPHWPEYNQKEGYLQIGANTQAAQKLKDKEVAFWTNLFAKKAVEKPPQTEHIEL
notes: inserting a stop codon after CES1A1 gene to yield the constructs expressing CES1 without V5-His tag; expressed in transfected cells
Broadly, the Km is the concentration of substrate that gives half-maximal velocity. On to B1, for which, in series [2], the Km was found to be 1381.6 µM and the Vmax is recorded as 145.3 nmole/min/mg protein.

B2: WT CES1 (Homo sapiens) (protein)
chain: B1 chain
As for B2, in series [3], the Michaelis-Menten constant (Km) turned out to be 663.5 ± 210.0 µM, the Vmax is 177.2 ± 29.6 pmole/min/mg protein and the Vmax/Km is given as 0.27 μl/min/mg protein.
